The supplement of paper PMC9112550, “Optimization of the antimicrobial peptide Bac7 by deep mutational scanning” (BMC Biology, 2022)

Tested on: Escherichia coli TOP10
Assay: shrunken log2 fold change of peptide-encoding DNA abundance (4.5 h post-induction vs induction); higher = less antimicrobial activity (less host growth inhibition)
Conditions: time post-induction: 4.5 h; library: site-saturation at positions 5, 18, 19, 20
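Note: peptides expressed intracellularly from a pBAD plasmid library in pooled LB shake-flask culture, induced with 0.3% L-arabinose, DNA abundance read by NGS, three biological replicates, DESeq2 with apeglm shrinkage.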

| Sequence | shrunken log2 fold change |
| --- | --- |
| RRIRPRPPRLPRPRPRPACQPRP | 0.22 |
| RRIRIRPPRLPRPRPRPEPWPRP | 0.39 |
| RRIRWRPPRLPRPRPRPATPPRP | 0.755 |
| RRIRFRPPRLPRPRPRPTYQPRP | -0.393 |
| RRIRNRPPRLPRPRPRPFKWPRP | -0.224 |
| RRIRSRPPRLPRPRPRPPVEPRP | -0.0919 |
| RRIRIRPPRLPRPRPRPPNLPRP | -0.188 |
| RRIRARPPRLPRPRPRPVSAPRP | 0.455 |
| RRIRGRPPRLPRPRPRPKWCPRP | 0.113 |
| RRIRPRPPRLPRPRPRPTPMPRP | 0.208 |
| RRIRKRPPRLPRPRPRPQEQPRP | 0.225 |
| RRIRKRPPRLPRPRPRPWYQPRP | 0.218 |
| RRIRCRPPRLPRPRPRPGWPPRP | 0.63 |
| RRIRPRPPRLPRPRPRPVLWPRP | 0.374 |
| RRIRIRPPRLPRPRPRPGVDPRP | 0.0326 |
| RRIRMRPPRLPRPRPRPAIVPRP | -0.161 |
| RRIRGRPPRLPRPRPRPFDCPRP | -0.208 |
| RRIRPRPPRLPRPRPRPCYAPRP | -0.414 |
| RRIRCRPPRLPRPRPRPQCVPRP | -0.0975 |
| RRIRFRPPRLPRPRPRPLDRPRP | 0.163 |
| RRIRWRPPRLPRPRPRPEMHPRP | 0.952 |
| RRIRSRPPRLPRPRPRPTYIPRP | -0.598 |
| RRIRSRPPRLPRPRPRPPSHPRP | 0.103 |
| RRIRRRPPRLPRPRPRPFRIPRP | 0.101 |
| RRIRDRPPRLPRPRPRPPQWPRP | 0.568 |

| Sequence | shrunken log2 fold change |
| --- | --- |
| RRIRLRPPRLPRPRPRPEPWPRP | 0.222 |
| RRIRDRPPRLPRPRPRPTIIPRP | -0.127 |
| RRIRRRPPRLPRPRPRPQQNPRP | 0.0713 |
| RRIRARPPRLPRPRPRPAFKPRP | 0.126 |
| RRIRFRPPRLPRPRPRPKKMPRP | 0.153 |
| RRIRGRPPRLPRPRPRPSYVPRP | 0.112 |
| RRIRMRPPRLPRPRPRPDCSPRP | 0.172 |
| RRIRPRPPRLPRPRPRPQQQPRP | -0.17 |
| RRIRQRPPRLPRPRPRPCKIPRP | -0.0788 |
| RRIRCRPPRLPRPRPRPDLCPRP | -0.047 |
| RRIRGRPPRLPRPRPRPWTRPRP | -0.0814 |
| RRIRRRPPRLPRPRPRPFYPPRP | -0.189 |
| RRIRHRPPRLPRPRPRPGTLPRP | -0.259 |
| RRIRQRPPRLPRPRPRPLSAPRP | 0.0436 |
| RRIRWRPPRLPRPRPRPRAAPRP | 1.04 |
| RRIRPRPPRLPRPRPRPIVPPRP | -0.208 |
| RRIRGRPPRLPRPRPRPDAVPRP | 1.81 |
| RRIRWRPPRLPRPRPRPIGFPRP | 0.0993 |
| RRIRNRPPRLPRPRPRPDDQPRP | 0.0463 |
| RRIRLRPPRLPRPRPRPDVGPRP | -0.0266 |
| RRIRLRPPRLPRPRPRPYTHPRP | -0.925 |
| RRIRKRPPRLPRPRPRPEWRPRP | 0.295 |
| RRIRYRPPRLPRPRPRPKDRPRP | -0.109 |
| RRIRDRPPRLPRPRPRPKTSPRP | 0.0412 |
| RRIRDRPPRLPRPRPRPNDPPRP | -0.125 |

| Sequence | shrunken log2 fold change |
| --- | --- |
| RRIRRRPPRLPRPRPRPPQMPRP | 1.24 |
| RRIRNRPPRLPRPRPRPDRVPRP | -0.275 |
| RRIRKRPPRLPRPRPRPGSCPRP | 0.346 |
| RRIRDRPPRLPRPRPRPEYLPRP | 0.0986 |
| RRIRERPPRLPRPRPRPDVDPRP | 0.0225 |
| RRIRTRPPRLPRPRPRPFYQPRP | -0.65 |
| RRIRQRPPRLPRPRPRPAIKPRP | -0.316 |
| RRIRTRPPRLPRPRPRPCYMPRP | -0.156 |
| RRIRDRPPRLPRPRPRPDKMPRP | 0.0425 |
| RRIRTRPPRLPRPRPRPATDPRP | 0.313 |
| RRIRCRPPRLPRPRPRPTRGPRP | 0.807 |
| RRIRQRPPRLPRPRPRPDYYPRP | -0.0251 |
| RRIRNRPPRLPRPRPRPGNWPRP | 0.0557 |
| RRIRGRPPRLPRPRPRPTGEPRP | 0.0778 |
| RRIRRRPPRLPRPRPRPAACPRP | 0.0555 |
| RRIRARPPRLPRPRPRPYHSPRP | -0.237 |
| RRIRHRPPRLPRPRPRPVRVPRP | 0.0942 |
| RRIRWRPPRLPRPRPRPNWPPRP | 0.214 |
| RRIRFRPPRLPRPRPRPVSIPRP | 0.0109 |
| RRIRSRPPRLPRPRPRPHMVPRP | -0.112 |
| RRIRPRPPRLPRPRPRPIQIPRP | -0.119 |
| RRIRHRPPRLPRPRPRPKRAPRP | 0.0906 |
| RRIRARPPRLPRPRPRPESVPRP | 0.886 |
| RRIRVRPPRLPRPRPRPIGRPRP | -0.0725 |
| RRIRMRPPRLPRPRPRPQWVPRP | 0.0772 |

| Sequence | shrunken log2 fold change |
| --- | --- |
| RRIRGRPPRLPRPRPRPMGGPRP | 0.458 |
| RRIRLRPPRLPRPRPRPCTMPRP | -0.152 |
| RRIRKRPPRLPRPRPRPSFCPRP | -0.0321 |
| RRIRHRPPRLPRPRPRPHTLPRP | -0.247 |
| RRIRWRPPRLPRPRPRPPPLPRP | 1.32 |
| RRIRGRPPRLPRPRPRPFHGPRP | 0.0325 |
| RRIRSRPPRLPRPRPRPPRVPRP | 0.142 |
| RRIRSRPPRLPRPRPRPGGYPRP | 2.83 |
| RRIRCRPPRLPRPRPRPNQQPRP | 0.00277 |
| RRIRYRPPRLPRPRPRPPWPPRP | 0.405 |
| RRIRLRPPRLPRPRPRPDNGPRP | -0.0567 |
| RRIRTRPPRLPRPRPRPLRIPRP | 0.00602 |
| RRIRSRPPRLPRPRPRPKMHPRP | 0.157 |
| RRIRIRPPRLPRPRPRPEDTPRP | 0.0265 |
| RRIRGRPPRLPRPRPRPAYIPRP | -0.156 |
| RRIRERPPRLPRPRPRPDEHPRP | -0.274 |
| RRIRRRPPRLPRPRPRPSLYPRP | -0.35 |
| RRIRLRPPRLPRPRPRPCRTPRP | -0.66 |
| RRIRCRPPRLPRPRPRPDRMPRP | -0.139 |
| RRIRMRPPRLPRPRPRPGQVPRP | 0.418 |
| RRIRPRPPRLPRPRPRPFLGPRP | -0.0178 |
| RRIRIRPPRLPRPRPRPYLSPRP | -0.0357 |
| RRIRIRPPRLPRPRPRPVRRPRP | 0.377 |
| RRIRRRPPRLPRPRPRPHFPPRP | 0.553 |
| RRIRMRPPRLPRPRPRPQTTPRP | 0.634 |

| Sequence | shrunken log2 fold change |
| --- | --- |
| RRIRSRPPRLPRPRPRPARPPRP | 0.691 |
| RRIRPRPPRLPRPRPRPSPPPRP | 0.0408 |
| RRIRDRPPRLPRPRPRPYAHPRP | -0.31 |
| RRIRTRPPRLPRPRPRPHAQPRP | 0.211 |
| RRIRFRPPRLPRPRPRPRMQPRP | 0.206 |
| RRIRHRPPRLPRPRPRPFESPRP | -0.00822 |
| RRIRMRPPRLPRPRPRPESCPRP | 3.68 |
| RRIRYRPPRLPRPRPRPKPGPRP | 0.221 |
| RRIRWRPPRLPRPRPRPSFIPRP | -0.545 |
| RRIRCRPPRLPRPRPRPFRRPRP | -0.237 |
| RRIRQRPPRLPRPRPRPLAHPRP | -0.0319 |
| RRIRPRPPRLPRPRPRPMDEPRP | 0.119 |
| RRIRARPPRLPRPRPRPKQDPRP | 0.734 |
| RRIRRRPPRLPRPRPRPNYEPRP | 0.0979 |
| RRIRGRPPRLPRPRPRPFDHPRP | -0.0514 |
| RRIRRRPPRLPRPRPRPIGSPRP | 0.318 |
| RRIRMRPPRLPRPRPRPQPSPRP | 1.11 |
| RRIRARPPRLPRPRPRPTALPRP | 0.513 |
| RRIRDRPPRLPRPRPRPIGLPRP | -0.00129 |
| RRIRNRPPRLPRPRPRPNQFPRP | -0.376 |
| RRIRKRPPRLPRPRPRPPQTPRP | 0.559 |
| RRIRPRPPRLPRPRPRPMYVPRP | -1.06 |
| RRIRWRPPRLPRPRPRPPQWPRP | 0.179 |
| RRIRSRPPRLPRPRPRPWGTPRP | -0.222 |
| RRIRARPPRLPRPRPRPEKKPRP | 0.275 |

| Sequence | shrunken log2 fold change |
| --- | --- |
| RRIRTRPPRLPRPRPRPDMWPRP | -0.126 |
| RRIRIRPPRLPRPRPRPNFPPRP | -0.144 |
| RRIRVRPPRLPRPRPRPIGSPRP | -0.0343 |
| RRIRERPPRLPRPRPRPYPHPRP | -0.0727 |
| RRIRIRPPRLPRPRPRPCPLPRP | -0.751 |
| RRIRHRPPRLPRPRPRPVMQPRP | -0.01 |
| RRIRMRPPRLPRPRPRPRICPRP | 0.113 |
| RRIRKRPPRLPRPRPRPANQPRP | 0.239 |
| RRIRNRPPRLPRPRPRPSIDPRP | -0.782 |
| RRIRWRPPRLPRPRPRPQLVPRP | 0.144 |
| RRIRRRPPRLPRPRPRPEWAPRP | 0.437 |
| RRIRWRPPRLPRPRPRPNIWPRP | -0.153 |
| RRIRNRPPRLPRPRPRPITYPRP | -1.09 |
| RRIRARPPRLPRPRPRPVDCPRP | 0.26 |
| RRIRDRPPRLPRPRPRPKCLPRP | 0.313 |
| RRIRKRPPRLPRPRPRPWSEPRP | 0.00538 |
| RRIRMRPPRLPRPRPRPVCGPRP | 0.898 |
| RRIRDRPPRLPRPRPRPIMIPRP | -0.408 |
| RRIRHRPPRLPRPRPRPRFEPRP | 0.185 |
| RRIRQRPPRLPRPRPRPIVYPRP | -0.311 |
| RRIRFRPPRLPRPRPRPAIPPRP | -0.0151 |
| RRIRYRPPRLPRPRPRPRWNPRP | -0.102 |
| RRIRSRPPRLPRPRPRPKPGPRP | 0.283 |
| RRIRTRPPRLPRPRPRPYWIPRP | -0.0377 |
| RRIRCRPPRLPRPRPRPSHFPRP | -0.345 |
